Target: T1, Bax-ω GAL4-transactivation domain hybrid (plasmid Bax-ω-GAL424) (yeast; human)
T1 chain: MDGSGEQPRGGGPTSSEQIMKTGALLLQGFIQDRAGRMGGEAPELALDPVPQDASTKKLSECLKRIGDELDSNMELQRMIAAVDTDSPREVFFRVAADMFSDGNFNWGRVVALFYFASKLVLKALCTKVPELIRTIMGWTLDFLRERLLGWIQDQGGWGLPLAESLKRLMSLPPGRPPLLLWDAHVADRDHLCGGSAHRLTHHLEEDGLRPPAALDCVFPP
Assay: yeast two-hybrid: β-galactosidase filter assay (SFY526) and growth in the absence of histidine (HF7C); (-) means white signal / no growth

B1: Bax-ω GAL4-DNA binding domain hybrid (plasmid Bax-ω-pAS1) (other)
chain: T1 chain
Does B1 bind?
Result: no binding

Reference: patent publication US5770690, “Bax omega protein and methods” (Neurex Corporation, dated 1998)
